The text below walks through data of patent US20050163775A1, “Combination therapy for B cell disorders” (Genentech, Inc., priority 2003, published 2005).

One assay deals with B cells. Put plainly: B cell depletion by anti-CD20 mAb, BR3-Fc or combination in hCD20+ mice (FIG. 29, 30). It counts as in vivo, mouse. The method, then: FACS analysis was performed on of spleen, blood, lymph node B cells (gated on CD21^+CD23^+).
Mice were treated with control IgG2a, BAFFR/BR3-Fc (100 μg/mouse IP daily for 12 days), anti-hCD20 mAb (100 μg/mouse IP on day 9) or the combination of BAFFR/BR3-Fc and anti-hCD20 mAb (same dosing as single treatment groups). B220^+ splenocytes were isolated on day 13 and stained for CD21 and CD23. N=5 mice/group.
In the Experimental Examples, the BR3-Fc or BAFFR/BR3-Fc used is hBR3-Fc of SEQ ID. NO. 2. […] Each group consisted of 4 mice. Two days following the last injection, the mice were sacrificed and analyzed for hCD20^+ B cells. FACS analysis of spleen, blood, lymph node and Peyer's Patches were analyzed for B cell markers (CD21^+CD23^+).
For the experiment shown in FIG. 30, hCD20 Tg+ mice were treated with control IgG2a, BAFFR/BR3-Fc (100 μg/mouse IP daily for 12 days), anti-hCD20 mAb (100 μg/mouse IP on day 9) or the combination of BAFFR/BR3-Fc and anti-hCD20 mAb (same dosing as single treatment groups). B220^+ splenocytes were isolated on day 13 and stained for CD21 and CD23. N=5 mice/group. […] The mice were treated with single doses of 0.1 mg control IgG2a, BAFF/BR3-Fc or anti-hCD20 mAb. Splenocytes were analyzed on day 4. N=5 mice/group.

A short description of assay [1]: Serum IgG and IgM in BR3-Fc treated mice. It counts as in vivo, mouse.
Another assay concerns the target T1, BAFF/BLyS (Mus musculus, UniProt Q9WU72).
T1 construct: host or cells: lupus-prone mice
The note with it: lupus-prone mice; cited from earlier work.

The nature of assay [2]: Expected serum IgG and IgM in responding human patients. It counts as in vivo. The following applies: human patients responding to treatment.
A further assay addresses T2, BLyS (Homo sapiens, UniProt Q9Y275).
T2 construct: A DNA fragment encoding human BAFF (residues 82-285) was cloned; His-tag (with thrombin cleavage site) (N, cleaved yes); made in house; host or cells: E. coli BL21 (DE3)
In words: Competitive displacement ELISA (biotinylated miniBR3), peptide-PEG conjugates. It counts as binding. Here is the method: The plate was washed with PBS and blocked with 1% skim milk in PBS. […] After washing with PBS/0.05% Tween, 100 μl well of each dilution was transferred and incubated for 1 hour at room temperature. The plate was washed with PBS/0.05% Tween and incubated 15 min with 100 μl/well of 0.1 U/ml Streptavidin-POD (Boehringer Mannheim) in PBS/0.05% Tween.
For orientation: In an ELISA, binding on a coated surface is turned into a signal by an enzyme label.

For assay [3], the target named is T3, human BAFF (residues 82-285) (human, UniProt Q9Y275 82-285).
T3 construct: Coated on plates in the ELISAs; also used biotinylated or free in solution for phage sorting; also called BAFF82-285; BLyS82-285
In words: phage display selection on BAFF.

Assay [4] deals with T3, human BAFF (residues 82-285). In words: competitive displacement ELISA on BAFF-coated plates, biotinylated miniBR3 as tracer.

Where a SMILES comes first, the peptide text is derived from it. Bridges are numbered along the chain shown (N, C = ends). Where no end group is shown, it is not given here.

T2 sequence (Q9Y275 82-285): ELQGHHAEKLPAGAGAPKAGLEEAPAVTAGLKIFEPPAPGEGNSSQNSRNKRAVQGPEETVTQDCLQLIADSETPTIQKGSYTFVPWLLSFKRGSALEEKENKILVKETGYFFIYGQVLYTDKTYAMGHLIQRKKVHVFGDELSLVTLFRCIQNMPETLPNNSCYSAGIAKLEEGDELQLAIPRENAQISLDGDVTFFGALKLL
T3 sequence (Q9Y275 82-285): as above
T1 sequence (Q9WU72 127-309 limits assumed): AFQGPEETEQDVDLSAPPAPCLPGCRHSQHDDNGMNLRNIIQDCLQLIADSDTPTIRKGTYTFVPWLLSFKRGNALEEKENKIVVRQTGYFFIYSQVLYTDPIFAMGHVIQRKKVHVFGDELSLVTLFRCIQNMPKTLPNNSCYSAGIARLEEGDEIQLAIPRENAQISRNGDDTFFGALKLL

“BR3-Fc: hBR3-Fc immunoadhesin of SEQ ID NO. 2, BAFF antagonist”: in the assay on B cells (hCD20+ mice), the “T2 and follicular B cells in the spleen” value is reported as “decreases”; the “marginal zone B cells in the spleen” value is “decreases”. For the same molecule, the “mature circulating B cells in the blood and lymph nodes” value with B cells (hCD20+ mice, 100 micrograms every other day Days 1 through 12) is “decreases”. Besides, the “MZ and T2/FO B cells in spleen (FIG. 30, panel 3)” value in the assay on B cells (treatment for ~2 weeks, 100 μg/mouse IP daily for 12 days, splenocytes day 13) is on record as “marked decrease”. The “Serum levels of IgG and IgM” value in assay [1] was “reduced”. Further, the “autoimmune serologies, renal pathology and mortality” value with BAFF/BLyS was “improved autoimmune serologies, renal pathology and mortality”. For the same molecule, in assay [2], the “serum IgG and IgM levels” value was “reduction in serum IgG and IgM levels”.
One may read the IC50 as the concentration at which inhibition is half-maximal. A high value points to a need for much substance. As to `CC(=O)N[C@@H](CCC(=O)O)C(=O)N[C@H]1CSSC[C@@H](C(=O)NCC(=O)N[C@@H](CC(C)C)C(=O)N[C@@H](CC(C)C)C(=O)N[C@@H](CCCNC(=N)N)C(N)=O)NC(=O)[C@@H]2CCCN2C(=O)[C@H](C(C)C)NC(=O)[C@H](Cc2c[nH]c3ccccc23)NC(=O)[C@H](Cc2c[nH]cn2)NC(=O)[C@H](CCCNC(=N)N)NC(=O)[C@H](C(C)C)NC(=O)[C@H](CC(C)C)NC(=O)[C@H](CC(C)C)NC(=O)[C@H](CC(=O)O)NC(=O)[C@H](Cc2ccccc2)NC1=O` [BLyS0048] (Ac-ECFDLLVRHWVPCGLLR-NH2; disulfide 2-13), the IC50 on BLyS (3 ng/ml biotinylated miniBR3, four-parameter fit) worked out at 14 nM; on BLyS (separate experiment), 15 nM.
On to ECFDPLVRVWVDCSILD (disulfide 2-13 (inferred)) [SEQ ID NO 100], for which the binding result in assay [3] is “binds”.
Same read-out and setting: to ECFDLLVNDWVPCGAIT (disulfide 2-13 (inferred)) [SEQ ID NO 125] belongs “binds”.
On the same count and under the same terms, the result for ECFDPLVGRWVPCTLLH (disulfide 2-13 (inferred)) [SEQ ID NO 104] reads “binds”; that for ECFDRLVRAWVPCTALT (disulfide 2-13 (inferred)) [SEQ ID NO 114], “binds”; that for ECFDILVNAWVPCRVIG (disulfide 2-13 (inferred)) [SEQ ID NO 112], “binds”.
Still for that read-out and setting: to ECFDILVDRWVPCAILH (disulfide 2-13 (inferred)) [SEQ ID NO 97] belongs “binds”; to ECFDPLVGHWVPCSVLT (disulfide 2-13 (inferred)) [SEQ ID NO 106], “binds”.
ECFDLLVNRWVDCRLLI [SEQ ID NO 102]: the binding result in assay [3] is reported as “binds”.
Same read-out and setting: the result for ECFDSLVNAWVPCSAIR (disulfide 2-13 (inferred)) [SEQ ID NO 101] reads “binds”.
Still for that read-out and setting: the result for ECFDALVRRWVDCSLLR [SEQ ID NO 126] reads “binds”; that for ECFDRLVNGWVPCAVLH (disulfide 2-13 (inferred)) [SEQ ID NO 123], “binds”; that for ECFDPLVNRWVDCVALH (disulfide 2-13 (inferred)) [SEQ ID NO 107], “binds”.
Consider ECFDRLVNRWVPCNLIV (disulfide 2-13 (inferred)) [SEQ ID NO 113], for which, in assay [3], the binding result is given as “binds”.
On to Ac-ECFDLLVRHWVACGLLR-NH2 (disulfide 2-13 (inferred)) [Ac-ECFDLLVRHWVACGLLR-NH2 (BLyS0027)], for which, in assay [4], the binding result is recorded as “binds”.
In the case of ECFDTLVNAWVPCNLLD (disulfide 2-13 (inferred)) [SEQ ID NO 122], the binding result in assay [3] is given as “binds”.
Same read-out and setting: the result for ECFDPLVRDWVRCDILT (disulfide 2-13 (inferred)) [SEQ ID NO 117] reads “binds”; that for ECFDPLVRIWVACDRLA [SEQ ID NO 103], “binds”; that for ECFDRLVNAWVDCRLLA (disulfide 2-13 (inferred)) [SEQ ID NO 124], “binds”.
Ac-ECFDLLVRAWVPCSVLK-NH2 (disulfide 2-13 (inferred)) [Ac-ECFDLLVRAWVPCSVLK-NH2 (BLyS0051)]: the binding result in assay [4] is “binds”.
On to ECFDLLVRAWVPCSVLK [SEQ ID NO 94], for which, in assay [3], the binding result is “binds”.
Same read-out and setting: the result for ECFDHLVRIWVPCTALA (disulfide 2-13 (inferred)) [SEQ ID NO 121] reads “binds”; that for ECFDLLVRQWVSCELLS [SEQ ID NO 95], “binds”; that for ECFDVLVSAWVDCARLN (disulfide 2-13 (inferred)) [SEQ ID NO 109], “binds”.
For the molecule ECFDPLVRVWVPCTVLR [SEQ ID NO 118], the binding result in assay [3] is listed as “binds”.
The same measure, in the same setting: the result for ECFDLLVRGWVDCSLLL [SEQ ID NO 96] reads “binds”.
With ECFDLLVRRWVPCHLIT [SEQ ID NO 115], in assay [3], the binding result is given as “binds”.
In the case of ECFDILVGRWVPCGLIH (disulfide 2-13 (inferred)) [SEQ ID NO 116], in assay [3], the binding result is “binds”.
For ECFDLLVRAWVPCHLID [SEQ ID NO 105], the binding result in assay [3] is “binds”.
For ECFDSLVRLWVPCNLLR [SEQ ID NO 110], the binding result in assay [3] is “binds”.
Still for that read-out and setting: to ECFDRLVGHWVPCAALI (disulfide 2-13 (inferred)) [SEQ ID NO 98] belongs “binds”; to ECFDALVHRWVDCAVLG (disulfide 2-13 (inferred)) [SEQ ID NO 127], “binds”.
On the same count and under the same terms, to ECFDVLVHRWVPCGLIR [SEQ ID NO 120] belongs “binds”.
As to ECFDRLVNLWVDCALLN (disulfide 2-13 (inferred)) [SEQ ID NO 108], in assay [3], the binding result is “binds”.
As for ECFDSLVRAWVPCGVLS [SEQ ID NO 119], the binding result in assay [3] is on record as “binds”.
On to ECFDPLVARWVPCHLIN (disulfide 2-13 (inferred)) [SEQ ID NO 99], for which the binding result in assay [3] is “binds”.
